T1: STING (mouse, UniProt Q3TBT3 1-378)
T1 sequence (looked up): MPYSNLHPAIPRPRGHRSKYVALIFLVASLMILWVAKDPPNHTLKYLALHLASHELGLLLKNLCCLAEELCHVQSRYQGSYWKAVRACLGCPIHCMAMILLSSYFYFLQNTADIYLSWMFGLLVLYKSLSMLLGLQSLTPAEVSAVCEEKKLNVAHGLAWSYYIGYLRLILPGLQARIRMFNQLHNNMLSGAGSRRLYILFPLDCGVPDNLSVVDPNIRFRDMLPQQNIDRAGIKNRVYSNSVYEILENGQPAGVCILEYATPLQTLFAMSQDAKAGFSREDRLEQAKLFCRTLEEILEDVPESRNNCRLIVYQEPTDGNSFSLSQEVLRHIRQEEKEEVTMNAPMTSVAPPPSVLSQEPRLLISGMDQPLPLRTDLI


What follows are binders tested against T1, STING (assay: cell-based or functional assay).

Binder | IC50 for inhibiting Ifnb mRNA (RT-qPCR, RAW264.7 cells stimulated with 2'3'-cGAMP)
NFNVAHGLAWSYYIGYLRLILPELQARIRTYNQHYNNLLR (N-terminus acetylated (-Ac); C-terminus amidated (-NH2)) [SIP-11] | 53.2 µM
NFNVAHGLAWSYYIGYLRLILPELQARIRTYNQHYNNL (not fully specified; N-terminus acetylated (-Ac); C-terminus amidated (-NH2)) [SIP-9] | 41.9 µM
NFNVAHGLAWSYYIGYLRLILPELQARIRTYNQHYNNLL (N-terminus acetylated (-Ac); C-terminus amidated (-NH2)) [SIP-10] | 66.3 µM
Ac-LAWSYYIGYLRL-NH2 [SIP-1] | 8.6 µM
Ac-NFNVAHGLAWSYYIG-NH2 (not fully specified) [SIP-5] | 28.5 µM
NFNVAHGLAWSYYIGYLRLILPELQ (N-terminus acetylated (-Ac); C-terminus amidated (-NH2)) [SIP-7] | 18.9 µM
Ac-NFNVAHGLAWSYYIGYLRLIL-NH2 (not fully specified) [SIP-6] | 35.3 µM
NFNVAHGLAWSYYIGYLRLILPELQARIRTYN (N-terminus acetylated (-Ac); C-terminus amidated (-NH2)) [SIP-8] | 32.6 µM

Reference: patent US20250326796A1 (SHANGHAI UNIVERSITY, published 2025)
